Six molecules from US20220340678A1 (MURAL ONCOLOGY, published 2022) can be followed below.

Assay [1] addresses T1, histidine-tagged human uPAR (Sino#10925-H08H) (human, UniProt Q03405 23-303).
T1 construct: also called uPAR-His
In words: BLI (Octet), antibody on anti-mouse Fc sensor, uPAR in solution. In general terms: In BLI a coated tip is dipped into the sample, and binding shifts an interference pattern.

For assay [2], the target named is T1, histidine-tagged human uPAR …. In words: BLI (Octet), uPAR on sensor, antibody in solution (avidity).
Assay [3] addresses T2, biotinylated human uPAR (human, UniProt Q03405 23-303, limits assumed, biotinylated (site not stated)). In words: BLI (Octet) on biotinylated human uPAR; row 'None': no first antibody.
Assay [4] deals with T2, biotinylated human uPAR. In words: BLI (Octet) competition on biotinylated human uPAR; competitor (first antibody): ATN-368 (ATN-658).
In assay [5] the target is T2, biotinylated human uPAR. In words: BLI (Octet) competition on biotinylated human uPAR; competitor (first antibody): M1.
For assay [6], the target named is T2, biotinylated human uPAR. In words: BLI (Octet) competition on biotinylated human uPAR; competitor (first antibody): M5.
The target of assay [7] is T3, human uPAR expressed on HEK293 cells (human, UniProt Q03405 23-305).
T3 construct: whole, on cells; also called Hu-uPAR
In words: flow cytometry, HEK293 cells expressing human uPAR, 100 nM uPA present. (In general: In flow cytometry, cells or beads pass a laser one at a time.)

Assay [8] concerns the target Human uPAR DII-DIII domain HisAvi Tag (human, biotinylated (site not stated)). In words: BLI (Octet), biotinylated domain on SA sensor, antibody 200 nM.
For assay [9], the target named is T4, mouse uPAR on cells (mouse, UniProt P35456 24-298).
T4 construct: whole, on cells; also called Ms-uPAR; mouse uPAR (CD87)
T4 sequence (looked up): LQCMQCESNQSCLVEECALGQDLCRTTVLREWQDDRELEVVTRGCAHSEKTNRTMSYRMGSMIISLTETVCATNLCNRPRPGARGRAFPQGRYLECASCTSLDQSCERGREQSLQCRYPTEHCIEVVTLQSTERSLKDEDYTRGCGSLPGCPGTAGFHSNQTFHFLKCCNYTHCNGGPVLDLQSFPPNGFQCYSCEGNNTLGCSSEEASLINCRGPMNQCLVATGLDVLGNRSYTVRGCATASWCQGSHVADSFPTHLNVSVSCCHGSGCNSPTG
Nature of the assay: flow cytometry, HEK293 cells expressing mouse uPAR, 100 nM uPA present.

Assay [10] has as its target human 4-1BB on 4-1BB effector cells (human, UniProt Q07011 24-255). Nature of the assay: cell-based or functional assay.
Assay [11] concerns the target T4, mouse uPAR on cells. Nature of the assay: flow cytometry on CT26 cells (express mouse uPAR), anti-His detection.
In assay [12] the target is T4, mouse uPAR on cells. In words: flow cytometry on MC38 cells (express mouse uPAR), anti-His detection.
Assay [13] concerns the target T4, mouse uPAR on cells. In words: flow cytometry on 4T1 cells (express mouse uPAR), anti-His detection.
Assay [14] concerns the target Recombinant human uPAR his (R&D Systems, 807-UK-100/CF) (human, UniProt Q03405 23-303, biotinylated (sites not given)). In words: SPR (Biacore), biotinylated human uPAR his on streptavidin chip.
The target of assay [15] is IL-2/IL-15 receptor on primary mouse splenocytes (mouse). In words: cell-based or functional assay.
In assay [16] the target is T5, Recombinant mouse uPAR-Fc (R&D Systems, Cat. No. 531-PA-100) (mouse, UniProt P35456 24-297, limits assumed).
T5 construct: not shown: Fc of the bought fusion (captured with the human antibody capture kit); not described
T5 sequence (looked up): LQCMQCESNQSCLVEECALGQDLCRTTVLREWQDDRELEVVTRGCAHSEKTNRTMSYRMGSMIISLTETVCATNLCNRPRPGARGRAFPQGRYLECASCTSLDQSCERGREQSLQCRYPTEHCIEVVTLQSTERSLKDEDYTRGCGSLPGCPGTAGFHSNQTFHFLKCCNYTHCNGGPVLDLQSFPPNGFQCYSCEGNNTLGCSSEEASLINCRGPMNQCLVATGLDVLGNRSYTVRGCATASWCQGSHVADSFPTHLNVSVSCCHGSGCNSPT
Nature of the assay: SPR (Biacore), mouse uPAR-Fc captured on anti-human antibody chip.

In general, koff refers to a measure of how fast the partners let go of each other. The term kon denotes the rate constant with which the complex forms. As a reminder, the EC50 is the concentration at which the effect is half-maximal.

human 4-1BB on 4-1BB effector cells, sequence (Q07011 24-255): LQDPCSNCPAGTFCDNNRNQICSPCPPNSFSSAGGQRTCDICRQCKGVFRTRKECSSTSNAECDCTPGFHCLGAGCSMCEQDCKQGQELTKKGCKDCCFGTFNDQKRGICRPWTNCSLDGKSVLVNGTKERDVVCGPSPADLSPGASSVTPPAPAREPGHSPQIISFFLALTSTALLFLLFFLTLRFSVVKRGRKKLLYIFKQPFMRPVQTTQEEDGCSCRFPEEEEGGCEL

B1: M5 (antibody, V domains shown)
VH: QVQLKESGPGLVAPSQSLSITCTVSGFSLTNYGVHWVRQPPGKDLEWLVVIWSDGGTTYNSALKSRLSISKDNSKSQVFLKMNSLQTDDTAMYYCARGGRSDLFAYWGQGTLVTVSA
VL: DVLMTQTPLSLPVSLGDQASISCRSSQSIVHSNGNTYLEWYLQKPGQSPKLLIYKVSNRFSGVPDRFSGSGSGTDFTLKISRVEAEDLGVYYCFQGSHVPYTFGGGTKLEIK
notes: Mouse hybridoma antibody; also called anti-uPAR antibody M5; parental M5
As for B1, the Kd in assay [1] was 33.1 nM; in assay [2], under 1 pM. For the same molecule, the values for the koff in assay [1] and in assay [2] were 0.000962 s⁻¹ and under 1e-07 s⁻¹, respectively. The kon in assay [1] is 29100 M⁻¹ s⁻¹; in assay [2], 28300 M⁻¹ s⁻¹. Moreover, the “response in competition assay” value with biotinylated human uPAR [3] was 0.181; in the assay with biotinylated human uPAR [4], 0.179; in the assay with biotinylated human uPAR [5], 0.161; with biotinylated human uPAR [6] it was -0.0173. Besides, the EC50 in assay [7] amounted to 2.53 nM; with mouse uPAR on cells [9], 93.8 nM. The binding result in assay [8] is listed as “binds”.

B2: M8 (antibody, V domains shown)
VH: QIQLVQSGPELKKPGETVKISCKASGNTFTDYGMNWVKQSPGKGLKWMGWINTNTGEPTYADDFKGRFAFSLETSASTAYLQINNLKNEDMATYFCAHYSFDYWGQGTTLTVSS
VL: DIQMTQSPASLSVSVGQTVTITCRTSENIYSNLAWYQQKPGKSPQLLVYAATNLADGVPSRFSGSGSGTQYSLKINSLQSEDFGSYYCQHFWGTPWTFGGGTKLEIK
notes: Mouse hybridoma antibody; also called anti-uPAR antibody M8; parental M8
As to B2, the Kd in [1] was 1.08 nM; in assay [2], under 1 pM. Besides, the values for the off-rate constant (koff) in assay [1] and in assay [2] were 0.00063 s⁻¹ and under 1e-07 s⁻¹, respectively. In addition, the kon in assay [1] worked out at 584000 M⁻¹ s⁻¹; in [2] it was 311000 M⁻¹ s⁻¹. The “response in competition assay” value with biotinylated human uPAR [3] came out at 0.284; with biotinylated human uPAR [4], 0.31; with biotinylated human uPAR [5], 0.302; with biotinylated human uPAR [6] it was 0.321. Also, the EC50 in assay [7] came to 0.54 nM; in the assay with mouse uPAR on cells [9], 31.4 nM. Also, in [8], the binding result is “binds”.

B3: Linked human 4-1BBL Trimer: Human uPA-ATF (other)
chain: SNELHQVPSNCDCLNGGTCVSNKYFSNIHWCNCPKKFGGQHCEIDKSKTCYEGNGHFYRGKASTDTMGRPCLPWNSATVLQQTYHAHRSDALQLGLGKHNYCRNPDNRRRPWCYVQVGLKPLVQECMVHDCAGGSGGREGPELSPDDPAGLLDLRQGMFAQLVAQNVLLIDGPLSWYSDPGLAGVSLTGGLSYKEDTKELVVAKAGVYYVFFQLELRRVVAGEGSGSVSLALHLQPLRSAAGAAALALTVDLPPASSEARNSAFGFQGRLLHLSAGQRLGVHLHTEARARHAWQLTQGATVLGLFRVTPEIPAGLPSPRSEGSGREGPELSPDDPAGLLDLRQGMFAQLVAQNVLLIDGPLSWYSDPGLAGVSLTGGLSYKEDTKELVVAKAGVYYVFFQLELRRVVAGEGSGSVSLALHLQPLRSAAGAAALALTVDLPPASSEARNSAFGFQGRLLHLSAGQRLGVHLHTEARARHAWQLTQGATVLGLFRVTPEIPAGLPSPRSEGSGREGPELSPDDPAGLLDLRQGMFAQLVAQNVLLIDGPLSWYSDPGLAGVSLTGGLSYKEDTKELVVAKAGVYYVFFQLELRRVVAGEGSGSVSLALHLQPLRSAAGAAALALTVDLPPASSEARNSAFGFQGRLLHLSAGQRLGVHLHTEARARHAWQLTQGATVLGLFRVTPEIPAGLPSPRSE
With B3, in assay [10], the “EC50, luciferase 4-1BB Bioassay” value was determined as 0.1 nM and the “Emax (luciferase units), 4-1BB Bioassay” value is 330000 luciferase units.

B4: Human uPA-ATF:His6 (ligand)
chain: SNELHQVPSNCDCLNGGTCVSNKYFSNIHWCNCPKKFGGQHCEIDKSKTCYEGNGHFYRGKASTDTMGRPCLPWNSATVLQQTYHAHRSDALQLGLGKHNYCRNPDNRRRPWCYVQVGLKPLVQECMVHDCAHHHHHH
notes: also called 103
Consider B4, for which a half-maximal response in the assay with mouse uPAR on cells [11] (EC50) required 1.1 nM. This molecule gave an EC50 with mouse uPAR on cells [12] of 0.42 nM. The molecule further displayed an EC50 in the assay with mouse uPAR on cells [13] of 0.22 nM. Besides, in assay [14], the Kd came to 0.24 nM, the koff was determined as 0.00035 s⁻¹ and the kon came to 1.5e+06 M⁻¹ s⁻¹.

B5: M43 (antibody, V domains shown)
VH: QVQLQQSGAELARPGASVNLSCKASGYTFTSYGISWVKQRTGQGLEWIGEIYPRSGNTYYNEKFKGKATLTADKSSRTAYMELRSLTSEDSAVYFCAGKDYGSTYADYWGQGTTLTVSS
VL: QIVLTQSPAIMSASPGEKVTMTCSASSSVSSRYLHWYQQKSGASPKLWIYGTSNLASGVPARFSGSGSGTSYSLTINSVEAEDAATYYCQQYHSDPLTFGAGTKLELK
notes: Mouse hybridoma antibody; also called anti-uPAR antibody M43; parental M43
On to B5, for which the Kd was 7.47 nM in assay [1] and under 1 pM in assay [2]. Besides, the koff in assay [1] was 0.00883 s⁻¹; in assay [2], under 1e-07 s⁻¹. Moreover, the kon in assay [1] is 1.18e+06 M⁻¹ s⁻¹; in assay [2] it was 554000 M⁻¹ s⁻¹. The “response in competition assay” value with biotinylated human uPAR [3] was found to be 0.295; with biotinylated human uPAR [4], 0.342; with biotinylated human uPAR [5], 0.312; in the assay with biotinylated human uPAR [6], 0.0175. The EC50 came out at 0.3 nM in assay [7] and 2.83 nM with mouse uPAR on cells [9]. In [8], the binding result is listed as “binds”.

B6: His6:Mouse uPA-ATF:mouse IL-15Ra:cpIL-15 (other)
chain: HHHHHHGSVLGAPDESNCGCQNGGVCVSYKYFSRIRRCSCPRKFQGEHCEIDASKTCYHGNGDSYRGKANTDTKGRPCLAWNAPAVLQKPYNAHRPDAISLGLGKHNYCRNPDNQKRPWCYVQIGLRQFVQECMVHDCGGSGGTTCPPPVSIEHADIRVKNYSVNSRERYVCNSGFKRKAGTSTLIECVINKNTNVAHWTTPSLKCIRDGGSELEEKTFTEFLQSFIRIVQMFINGGGSNWIDVRYDLEKIESLIQSIHIDTTLYTDSDFHPSCKVTAMNCFLLELQVILHEYSNMTLNETVRNVLYLANSTLSSNKNVAESGCKEC
notes: also called 102
Take B6: in [15], the “pSTAT5 EC50, mouse NK cells” value worked out at 0.15 nM; the “pSTAT5 EC50, mouse Tregs” value came out at 1.7 nM; the “pSTAT5 EC50, mouse memory CD8 T cells” value stood at 0.5 nM. This molecule also displayed an EC50 with mouse uPAR on cells [12] of 0.41 nM. Moreover, in [16], the Kd is 0.14 nM, the koff was 0.0002 s⁻¹ and the kon is 1.5e+06 M⁻¹ s⁻¹.
